Laboratory results reported in patent US20180155450A1 (Sanofi, published 2018).
Like-named read-outs stand apart in the source and are kept apart here. Blank lines part the entries; values can stand above or below the binder they belong to.

Assays:
[1] = target: T1, recombinant human IL4 (human, UniProt P05112 25-153); experiment: cell-based or functional assay
T1 sequence (looked up): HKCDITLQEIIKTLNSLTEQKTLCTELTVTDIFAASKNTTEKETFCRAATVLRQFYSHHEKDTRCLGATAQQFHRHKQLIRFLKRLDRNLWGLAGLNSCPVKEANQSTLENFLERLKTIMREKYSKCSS

[2] = target: recombinant human IL13 (human, UniProt P35225 35-146, limits assumed); experiment: cell-based or functional assay
Target sequence in this assay (P35225 35-146 limits assumed): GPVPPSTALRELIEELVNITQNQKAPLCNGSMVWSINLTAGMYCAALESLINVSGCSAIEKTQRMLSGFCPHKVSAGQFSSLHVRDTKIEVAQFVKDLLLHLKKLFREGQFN

[3] = target: T2, recombinant human IL13 (human, UniProt P35225 35-146, limits assumed); experiment: SPR, BIACORE 3000; antibody captured by anti-human Fc, antigen 0-25 nM as analyte
T2 construct: also called Antigen2
T2 sequence (P35225 35-146 limits assumed): as above
Experimental: Kinetic characterization of purified antibodies was performed using surface plasmon resonance technology on a BIACORE 3000 (GE Healthcare). […] Chip surfaces were regenerated with 10 mM glycine, pH 2.5. Kinetic parameters were analyzed and calculated in the BIAevaluation program package v4.1 using a flow cell without captured antibody as reference.

[4] = target: T1, recombinant human IL4; experiment: cell-based or functional assay; remark: listed apart in the source
[5] = target: T1, recombinant human IL4; experiment: SPR (Biacore 3000), antibody captured, antigen as analyte
Experimental: (§1) Kinetic binding analysis by Biacore was performed as follows. Surface plasmon resonance technology on a Biacore 3000 (GE Healthcare) was used for detailed kinetic characterization of purified antibodies. […] Chip surfaces were regenerated with 10 mM glycine pH 2.5. Kinetic parameters were analyzed and calculated in the BIAevaluation program package v4.1 using a flow cell without captured antibody as a reference.

[6] = target: T1, recombinant human IL4; experiment: as above; remark: listed apart in the source
Experimental: as §1

[7] = target: T1, recombinant human IL4; experiment: SPR (Biacore 3000), CODV-Fab captured with anti-human Fab capture kit, antigen as analyte
Experimental: as §1

IC50 Cellular Assay IL4 [nM] (HEK-Blue IL-4/IL-13 reporter cells, SEAP) [1]: 0.032 nM
IC50 Cellular Assay IL13 [nM] (HEK-Blue IL-4/IL-13 reporter cells, SEAP) [2]: 1.7 nM
B1: CODV-Ig Batch ID 601 (Batch ID 204 with P344C & A432C in IGHG1) (bispecific antibody, human IgG1, kappa)
heavy: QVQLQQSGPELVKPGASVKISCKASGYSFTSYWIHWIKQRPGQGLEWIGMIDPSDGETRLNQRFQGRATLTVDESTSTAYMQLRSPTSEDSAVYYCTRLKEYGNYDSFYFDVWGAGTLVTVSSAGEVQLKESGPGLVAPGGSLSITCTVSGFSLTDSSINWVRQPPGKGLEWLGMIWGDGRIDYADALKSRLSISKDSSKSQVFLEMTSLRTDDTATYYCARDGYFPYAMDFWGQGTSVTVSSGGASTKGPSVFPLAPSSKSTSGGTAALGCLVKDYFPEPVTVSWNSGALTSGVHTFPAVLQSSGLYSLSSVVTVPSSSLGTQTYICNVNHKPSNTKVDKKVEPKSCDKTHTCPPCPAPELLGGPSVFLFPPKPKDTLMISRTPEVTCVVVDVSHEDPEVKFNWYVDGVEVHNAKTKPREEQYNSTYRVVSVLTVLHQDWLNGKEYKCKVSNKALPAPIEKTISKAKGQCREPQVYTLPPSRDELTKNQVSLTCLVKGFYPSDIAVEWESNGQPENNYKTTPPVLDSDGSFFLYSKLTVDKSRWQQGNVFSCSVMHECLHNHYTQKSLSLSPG
light: DIVLTQSPASLAVSLGQRATISCRASESVDSYGQSYMHWYQQKAGQPPKLLIYLASNLESGVPARFSGSGSRTDFTLTIDPVQAEDAATYYCQQNAEDSRTFGGGTKLEIKGGGGGGGDIQMTQSPASLSVSVGDTITLTCHASQNIDVWLSWFQQKPGNIPKLLIYKASNLHTGVPSRFSGSGSGTGFTLTISSLQPEDIATYYCQQAHSYPFTFGGGTKLEIKRGGGGGRTVAAPSVFIFPPSDEQLKSGTASVVCLLNNFYPREAKVQWKVDNALQSGNSQESVTEQDSKDSTYSLSSTLTLSKADYEKHKVYACEVTHQGLSSPVTKSFNRGEC

Kd [3]: 81.8 pM
B2: parental anti-IL13 mAb (antibody, V domains shown)
VH: EVQLKESGPGLVAPGGSLSITCTVSGFSLTDSSINWVRQPPGKGLEWLGMIWGDGRIDYADALKSRLSISKDSSKSQVFLEMTSLRTDDTATYYCARDGYFPYAMDFWGQGTSVTVSS
VL: DIVLTQSPASLAVSLGQRATISCRASESVDSYGQSYMHWYQQKAGQPPKLLIYLASNLESGVPARFSGSGSRTDFTLTIDPVQAEDAATYYCQQNAEDSRTFGGGTKLEIK
notes: also called parental humanized anti-IL13; BB13

IC50 Cellular Assay IL4 [nM] (HEK-Blue IL-4/IL-13 reporter cells, SEAP) [4]: 0.045 nM
Kd [5]: 3 pM
Kd [6]: 3 pM
B3: CODV-Ig Batch ID 204 (IL4 × IL13 on HC; L1=7, L2=5, L3=1, L4=2) (bispecific antibody)
heavy: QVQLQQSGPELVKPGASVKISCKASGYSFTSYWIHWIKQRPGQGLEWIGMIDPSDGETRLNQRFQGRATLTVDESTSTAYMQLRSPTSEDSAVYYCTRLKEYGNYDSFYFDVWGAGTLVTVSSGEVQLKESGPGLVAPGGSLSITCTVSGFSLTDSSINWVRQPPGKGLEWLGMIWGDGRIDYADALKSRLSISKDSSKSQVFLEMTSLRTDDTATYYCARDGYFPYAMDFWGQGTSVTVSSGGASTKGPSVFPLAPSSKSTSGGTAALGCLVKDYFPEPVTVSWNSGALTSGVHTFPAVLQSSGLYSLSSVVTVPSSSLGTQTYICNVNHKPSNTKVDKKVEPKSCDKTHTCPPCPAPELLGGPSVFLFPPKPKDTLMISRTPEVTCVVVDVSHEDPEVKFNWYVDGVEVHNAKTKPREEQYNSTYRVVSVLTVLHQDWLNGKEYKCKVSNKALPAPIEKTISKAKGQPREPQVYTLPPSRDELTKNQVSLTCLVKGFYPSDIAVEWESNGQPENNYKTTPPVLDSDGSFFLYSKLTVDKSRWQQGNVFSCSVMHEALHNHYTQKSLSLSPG
light: DIVLTQSPASLAVSLGQRATISCRASESVDSYGQSYMHWYQQKAGQPPKLLIYLASNLESGVPARFSGSGSRTDFTLTIDPVQAEDAATYYCQQNAEDSRTFGGGTKLEIKGGGGGGGDIQMTQSPASLSVSVGDTITLTCHASQNIDVWLSWFQQKPGNIPKLLIYKASNLHTGVPSRFSGSGSGTGFTLTISSLQPEDIATYYCQQAHSYPFTFGGGTKLEIKGGGGGRTVAAPSVFIFPPSDEQLKSGTASVVCLLNNFYPREAKVQWKVDNALQSGNSQESVTEQDSKDSTYSLSSTLTLSKADYEKHKVYACEVTHQGLSSPVTKSFNRGEC
notes: 704 prints 'IL13 × IL4' and format 'CODV'; also called 801; 704

Kd [7]: 12 pM
B4: CODV-Fab Batch ID 421 (IL4 × IL13; L1=7, L2=5, L3=1, L4=2) (bispecific antibody)
heavy: QVQLQQSGPELVKPGASVKISCKASGYSFTSYWIHWIKQRPGQGLEWIGMIDPSDGETRLNQRFQGRATLTVDESTSTAYMQLRSPTSEDSAVYYCTRLKEYGNYDSFYFDVWGAGTLVTVSSGEVQLKESGPGLVAPGGSLSITCTVSGFSLTDSSINWVRQPPGKGLEWLGMIWGDGRIDYADALKSRLSISKDSSKSQVFLEMTSLRTDDTATYYCARDGYFPYAMDFWGQGTSVTVSSGGASTKGPSVFPLAPSSKSTSGGTAALGCLVKDYFPEPVTVSWNSGALTSGVHTFPAVLQSSGLYSLSSVVTVPSSSLGTQTYICNVNHKPSNTKVDKKVEPKSCDKTHTHHHHHH
light: B3 light
